Measurements published in PMC5676751.

Target: HER2 on HER2-expressing SKOV3 and BT474 cells (human (endogenous in SKOV3 and BT474)) (UniProt P04626)
Test: radioligand binding; LigandTracer Yellow, living SKOV3 cells (10^6) on a segment of a dish; radiolabeled ADAPT at 0.333 and 1 nM; association and dissociation recorded, duplicates; InteractionMap software, two types of interaction

Substance: ^99mTc-DEAVDANS-ADAPT6-GSSC (designed binder)
- KD1 (first of two types of interaction): 174 pM

Substance: ^111In-DEAVDANS-ADAPT6-GSSC-DOTA (designed binder)
- KD1 (first of two types of interaction): 32.3 pM
- KD2 (second of two types of interaction): 1.31 nM
